In patent publication US20170088600A1:
“And” between values parts separate entries of the source, which are not always exact repeats. Equal entries are not always repeated.

Assays:
[1] = target: TRAIL-R1-Fc (human TRAIL-R1 ectodomain Fc fusion) (human) (UniProt O00220); experiment: SPR, average of KDeq and kinetic KD (KDave)
[2] = target: CD155-Fc (CD155 / poliovirus receptor Fc fusion) (UniProt P15151); experiment: SPR kinetic fit, 1:1 Langmuir; CD155-Fc captured, UL141 analyte
[3] = target: TRAIL-R2-Fc (human TRAIL-R2 aa 58-184, thrombin site, human IgG1 Fc), wild type (human) (UniProt O14763); experiment: SPR, WT TRAIL-R2-Fc captured, UL141 as analyte
Chain of TRAIL-R2-Fc (human TRAIL-R2 aa 58-184, thrombin site, human IgG1 Fc), wild type (human) (O14763 other isoform, or with tags, fused parts or gaps limits assumed): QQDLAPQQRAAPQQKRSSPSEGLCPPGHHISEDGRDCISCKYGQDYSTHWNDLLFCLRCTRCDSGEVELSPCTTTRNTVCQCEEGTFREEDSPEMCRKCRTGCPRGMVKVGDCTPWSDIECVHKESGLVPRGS

[4] = target: TRAIL-R2-Fc L110A/L114A (human) (UniProt O14763); experiment: SPR, mutant TRAIL-R2-Fc captured, UL141 as analyte
Chain of TRAIL-R2-Fc L110A/L114A (human) (O14763 other isoform, or with tags, fused parts or gaps L110A L114A L110A L114A limits assumed): as the sequence (O14763 other isoform, or with tags, fused parts or gaps limits assumed) above, with L53A, L57A counted along it

[5] = target: TRAIL-R2-Fc M152A (human) (UniProt O14763); experiment: SPR, mutant TRAIL-R2-Fc captured, UL141 as analyte
Chain of TRAIL-R2-Fc M152A (human) (O14763 other isoform, or with tags, fused parts or gaps M152A M152A limits assumed): as the sequence (O14763 other isoform, or with tags, fused parts or gaps limits assumed) above, with M95A counted along it

[6] = target: TRAIL-R2-Fc D148A (human) (UniProt O14763); experiment: SPR, mutant TRAIL-R2-Fc captured, UL141 as analyte
Chain of TRAIL-R2-Fc D148A (human) (O14763 other isoform, or with tags, fused parts or gaps D148A D148A limits assumed): as the sequence (O14763 other isoform, or with tags, fused parts or gaps limits assumed) above, with D91A counted along it

[7] = target: TRAIL-R2-Fc F112A (human) (UniProt O14763); experiment: SPR, mutant TRAIL-R2-Fc captured, UL141 as analyte
Chain of TRAIL-R2-Fc F112A (human) (O14763 other isoform, or with tags, fused parts or gaps F112A F112A limits assumed): as the sequence (O14763 other isoform, or with tags, fused parts or gaps limits assumed) above, with F55A counted along it

[8] = target: TRAIL-R2-Fc P150A (human) (UniProt O14763); experiment: SPR, mutant TRAIL-R2-Fc captured, UL141 as analyte
Chain of TRAIL-R2-Fc P150A (human) (O14763 other isoform, or with tags, fused parts or gaps P150A P150A limits assumed): as the sequence (O14763 other isoform, or with tags, fused parts or gaps limits assumed) above, with P93A counted along it

[9] = target: TRAIL-R2-Fc V167A (human) (UniProt O14763); experiment: SPR, mutant TRAIL-R2-Fc captured, UL141 as analyte
Chain of TRAIL-R2-Fc V167A (human) (O14763 other isoform, or with tags, fused parts or gaps V167A V167A limits assumed): as the sequence (O14763 other isoform, or with tags, fused parts or gaps limits assumed) above, with V110A counted along it

[10] = target: TRAIL-R2-Fc K155A (human) (UniProt O14763); experiment: SPR, mutant TRAIL-R2-Fc captured, UL141 as analyte
Chain of TRAIL-R2-Fc K155A (human) (O14763 other isoform, or with tags, fused parts or gaps K155A K155A limits assumed): as the sequence (O14763 other isoform, or with tags, fused parts or gaps limits assumed) above, with K98A counted along it

[11] = target: TRAIL-R2-Fc E78A/D109A (human) (UniProt O14763); experiment: SPR, mutant TRAIL-R2-Fc captured, UL141 as analyte
Chain of TRAIL-R2-Fc E78A/D109A (human) (O14763 other isoform, or with tags, fused parts or gaps E78A D109A E78A D109A limits assumed): as the sequence (O14763 other isoform, or with tags, fused parts or gaps limits assumed) above, with E21A, D52A counted along it

[12] = target: TRAIL-R2-Fc M152A/R154A/K155A (human) (UniProt O14763); experiment: SPR, mutant TRAIL-R2-Fc captured, UL141 as analyte
Chain of TRAIL-R2-Fc M152A/R154A/K155A (human) (O14763 other isoform, or with tags, fused parts or gaps M152A R154A K155A M152A R154A K155A limits assumed): as the sequence (O14763 other isoform, or with tags, fused parts or gaps limits assumed) above, with M95A, R97A, K98A counted along it

[13] = target: TRAIL-R2-Fc R154A (human) (UniProt O14763); experiment: SPR, mutant TRAIL-R2-Fc captured, UL141 as analyte
Chain of TRAIL-R2-Fc R154A (human) (O14763 other isoform, or with tags, fused parts or gaps R154A R154A limits assumed): as the sequence (O14763 other isoform, or with tags, fused parts or gaps limits assumed) above, with R97A counted along it

[14] = target: TRAIL-R1-Fc (human TRAIL-R1 ectodomain Fc fusion) (human) (UniProt O00220); experiment: SPR, steady-state analysis (KDeq); TRAIL-R1-Fc captured, UL141 analyte
[15] = target: TRAIL-R1-Fc (human TRAIL-R1 ectodomain Fc fusion) (human) (UniProt O00220); experiment: SPR kinetic fit, 1:1 Langmuir; TRAIL-R1-Fc captured, UL141 analyte
[16] = target: TRAIL-R2-Fc (human TRAIL-R2 aa 58-184, thrombin site, human IgG1 Fc), wild type (human) (UniProt O14763); experiment: SPR kinetic fit, 1:1 Langmuir; TRAIL-R2-Fc captured, UL141 analyte
[17] = target: CD155-Fc (CD155 / poliovirus receptor Fc fusion) (UniProt P15151); experiment: SPR, KDave
[18] = target: TRAIL-R2-Fc (human TRAIL-R2 aa 58-184, thrombin site, human IgG1 Fc), wild type (human) (UniProt O14763); experiment: SPR, KDave

Chain of CD155-Fc (CD155 / poliovirus receptor Fc fusion) (P15151 21-343): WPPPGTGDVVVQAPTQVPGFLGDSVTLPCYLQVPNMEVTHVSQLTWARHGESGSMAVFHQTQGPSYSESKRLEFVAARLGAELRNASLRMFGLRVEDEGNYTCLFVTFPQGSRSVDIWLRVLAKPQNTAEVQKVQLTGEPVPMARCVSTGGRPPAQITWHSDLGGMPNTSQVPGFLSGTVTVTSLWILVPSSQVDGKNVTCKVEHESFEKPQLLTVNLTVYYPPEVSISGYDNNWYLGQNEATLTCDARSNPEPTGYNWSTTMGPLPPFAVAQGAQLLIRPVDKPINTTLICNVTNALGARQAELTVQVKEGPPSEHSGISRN
Chain of UL141 ectodomain of human cytomegalovirus (HCMV FIX strain), C-terminal poly-histidine tag (ligand) (Q6RJQ3 30-279, tags left off): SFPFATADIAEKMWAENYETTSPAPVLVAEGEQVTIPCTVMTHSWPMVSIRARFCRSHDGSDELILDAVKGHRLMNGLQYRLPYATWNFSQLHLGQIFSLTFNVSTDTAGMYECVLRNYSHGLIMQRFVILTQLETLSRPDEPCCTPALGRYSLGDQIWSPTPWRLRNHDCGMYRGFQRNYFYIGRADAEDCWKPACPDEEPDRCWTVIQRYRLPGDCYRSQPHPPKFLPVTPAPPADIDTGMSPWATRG
Chain of TRAIL-R1-Fc (human TRAIL-R1 ectodomain Fc fusion) (human) (O00220 24-239): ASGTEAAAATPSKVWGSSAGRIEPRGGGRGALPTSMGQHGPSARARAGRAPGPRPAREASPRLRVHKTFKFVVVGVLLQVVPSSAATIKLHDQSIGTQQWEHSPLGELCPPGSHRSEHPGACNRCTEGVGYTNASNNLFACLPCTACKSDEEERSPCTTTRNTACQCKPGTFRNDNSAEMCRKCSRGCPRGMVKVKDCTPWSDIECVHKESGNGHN

UL141 ectodomain of human cytomegalovirus (HCMV FIX strain), C-terminal poly-histidine tag (ligand)
Kd [1]: 2300 nM
Kd [2]: 1.97 nM
koff [2]: 0.000346 s⁻¹
kon [2]: 176000 M⁻¹ s⁻¹
Kd [3]: 6 nM and 5.95 nM
koff [3]: 7.21e-05 s⁻¹
kon [3]: 12100 M⁻¹ s⁻¹
Kd [4]: 42.7 nM
fold decrease in binding affinity versus wild type [4]: 7 fold
fold lower binding than wild type [4]: 10 fold
koff [4]: 0.00064 s⁻¹
kon [4]: 15000 M⁻¹ s⁻¹
Kd [5]: 7.49 nM
koff [5]: 0.000382 s⁻¹
kon [5]: 51000 M⁻¹ s⁻¹
Kd [6]: 55.3 nM
fold lower binding than wild type [6]: 10 fold
koff [6]: 0.0013 s⁻¹
kon [6]: 23500 M⁻¹ s⁻¹
Kd [7]: 630 nM
fold lower binding than wild type [7]: 100 fold
koff [7]: 0.00566 s⁻¹
kon [7]: 8980 M⁻¹ s⁻¹
Kd [8]: 8.32 nM
koff [8]: 0.000391 s⁻¹
kon [8]: 47000 M⁻¹ s⁻¹
Kd [9]: 15.5 nM
fold lower binding than wild type [9]: 2.5 fold
koff [9]: 0.00048 s⁻¹
kon [9]: 31000 M⁻¹ s⁻¹
Kd [10]: 7.74 nM
koff [10]: 0.00038 s⁻¹
kon [10]: 49100 M⁻¹ s⁻¹
Kd [11]: 60.4 nM
fold lower binding than wild type [11]: 10 fold
koff [11]: 0.00151 s⁻¹
kon [11]: 25000 M⁻¹ s⁻¹
Kd [12]: 7.39 nM
koff [12]: 0.00027 s⁻¹
kon [12]: 36500 M⁻¹ s⁻¹
Kd [13]: 6.26 nM
koff [13]: 0.000243 s⁻¹
kon [13]: 38800 M⁻¹ s⁻¹
Kd [14]: 2.27 nM
Kd [15]: 2330 nM
koff [15]: 0.014 s⁻¹
kon [15]: 6020 M⁻¹ s⁻¹
Kd [16]: 5.96 nM
koff [16]: 7.21e-05 s⁻¹
kon [16]: 12100 M⁻¹ s⁻¹
Kd [17]: 2 nM
Kd [18]: 6 nM
